The values that follow are results of earlier work, collected in PMC8515877.

pKd: −log10 of the molar value.

The series concerns the target GnRH receptor (Mus musculus) (UniProt Q01776).
Chain of UniProt Q01776 (Q01776 whole entry): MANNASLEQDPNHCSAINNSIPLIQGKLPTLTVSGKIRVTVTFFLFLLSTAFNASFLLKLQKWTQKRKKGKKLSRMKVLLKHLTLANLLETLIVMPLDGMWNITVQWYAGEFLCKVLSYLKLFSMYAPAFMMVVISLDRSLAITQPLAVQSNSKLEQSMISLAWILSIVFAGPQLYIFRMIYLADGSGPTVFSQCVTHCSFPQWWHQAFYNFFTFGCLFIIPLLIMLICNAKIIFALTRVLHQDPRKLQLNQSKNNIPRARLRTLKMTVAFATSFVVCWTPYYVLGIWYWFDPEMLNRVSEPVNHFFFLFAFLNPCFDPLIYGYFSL

Chain of GnRH (P13562 whole entry, looked up): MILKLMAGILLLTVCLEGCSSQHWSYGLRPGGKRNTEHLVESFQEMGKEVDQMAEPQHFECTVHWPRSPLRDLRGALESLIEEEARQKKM

Consider GnRH (from UniProt P13562), for which the pKd is 8.85.
